One molecule from PMC9258321, “Structure-guided design of CPPC-paired disulfide-rich peptide libraries for ligand and drug discovery†” (Chemical Science, 2022) can be followed below.

Ends that are not written are not given here.

This experiment concerns the target T1, Kelch domain of Keap1.
T1 construct: Keap1, Kelch domain; The Kelch domain is named for the phage selection; the SPR sentences say only 'Keap1'
Put plainly: SPR; Keap1 with oxidized peptides, concentration-dependent. The following applies: both partners purified.

Broadly, the Kd is a measure of binding affinity in units of concentration. Read a low Kd as tighter binding.

B1: drp5-a (peptide)
chain: CPPCHGRPTCDEETGECWELLTCPPC
modifications: disulfide (positions not given here); also: oxidized (disulfides), pairing of this isomer not given here
Take B1: the Kd came out at 153 nM.
